Reference: patent US20220380459A1 (DRAGONFLY THERAPEUTICS, published 2022)
Like-named read-outs stand apart in the source and are kept apart here.

What was measured:
[1] = molecular target: T1, human CD33 extracellular domain (human, UniProt P20138 18-259); test: SPR, Fab captured, 37C
T1 construct: soluble monomeric ECD; also called human CD33 ECD; hCD33
Protocol: (§1) Kinetics and affinity of a series of Fab fragments of anti-CD33 antibodies with different CD33 variants (human CD33 ECD, cyno CD33 ECD, V-domain of human CD33, C-domain or human CD33 and selected CD33 SNPs) were assessed by surface plasmon resonance using Biacore 8K instrument (GE Healthcare). Anti-Fab antibody was immobilized on a CMS chip using standard amine coupling chemistry. CD33 FABs were captured on the anti-Fab chip at a density of ˜100 RU. Solutions containing different concentrations of soluble monomeric CD33 or its domains were injected over the captured FABs and control surfaces at 30 μl/min at 37° C. Surfaces were regenerated between cycles by quick injection of 10 mM glycine, pH 1.8. To obtain kinetic rate constants double-referenced data were fit to a 1:1 interaction model using Biacore 8K Evaluation software (GE Healthcare). The equilibrium binding constant KD was determined by the ratio of binding rate constants kd/kₐ.

[2] = molecular target: T2, V domain of human CD33 (human, UniProt P20138 18-139, limits assumed); test: SPR, Fab captured, 37C
T2 construct: recombinant, fully glycosylated V domain; also called Human CD33 V domain
Protocol: as §1

[3] = molecular target: T1, human CD33 extracellular domain; test: SPR, Fab captured, 37C; remark: listed apart in the source
Protocol: as §1
(§2) Affinity of 29 Fab fragments binding to human and cyno CD33 ECD were assayed by Biacore analysis.

[4] = molecular target: T3, cyno CD33 extracellular domain (Cynomolgus/Rhesus (cyno)); test: SPR, Fab captured, 37C;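 also: surface plasmon resonance with Fabs captured on anti-Fab surface, soluble monomeric CD33 as analyte at several concentrations, double-referenced 1:1 model fit, KD as koff/kon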
T3 construct: soluble monomeric ECD; also called cyno CD33 ECD
Protocol: as §1, §2

[5] = molecular target: T4, deglycosylated V domain of human CD33 (human, UniProt P20138 18-139, limits assumed, N-glycans removed by PNGase); test: SPR, Fab captured, 37C
T4 construct: V domain deglycosylated by PNGase before testing; also called deglycosylated V CD33

[6] = molecular target: T2, V domain of human CD33; test: SPR, Fab captured, 37C; remark: listed apart in the source
[7] = molecular target: T1, human CD33 extracellular domain; test: SPR, Fab captured, 37C; remark: listed apart in the source
Protocol: as §1, §2

[8] = molecular target: T5, C domain of human CD33 (human, UniProt P20138 140-259, limits assumed); test: SPR, Fab captured, 37C
T5 construct: recombinant C domain
Protocol: as §1

[9] = molecular target: T1, human CD33 extracellular domain; test: SPR, Fab captured, 37C; remark: listed apart in the source
Protocol: as §1

[10] = molecular target: T2, V domain of human CD33; test: SPR, Fab captured, 37C; remark: listed apart in the source
Protocol: as §1

[11] = molecular target: T6, human NKG2D expressed on cells (human, UniProt P26718 1-216); test: flow cytometry on EL4-hNKG2D cells
T6 construct: whole, on cells; also called hNKG2D; EL4-hNKG2D
T6 sequence (looked up): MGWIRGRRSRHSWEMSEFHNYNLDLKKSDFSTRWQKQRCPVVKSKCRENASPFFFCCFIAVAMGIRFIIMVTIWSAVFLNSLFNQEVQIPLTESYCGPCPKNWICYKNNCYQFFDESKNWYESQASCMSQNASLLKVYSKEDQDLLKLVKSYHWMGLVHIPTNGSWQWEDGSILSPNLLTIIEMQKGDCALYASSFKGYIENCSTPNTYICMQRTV
Protocol: EL4-hNKG2D cells were incubated with the diluted TriNKET or mAb solutions. Binding of the TriNKET or mAb to the EL4 cells was detected using a fluorophore-conjugated anti-human IgG secondary antibody. The cells were analyzed by flow cytometry, and fold over background values were calculated by normalizing binding MFI to the MFI of a control group in which the cells were incubated with the secondary antibody only.

[12] = molecular target: T7, human CD33 expressed on cells (human, UniProt P20138 18-364); test: flow cytometry on Mv4-11 cells, fluorophore-conjugated anti-human IgG secondary antibody, MFI as fold over background (FOB)
T7 construct: endogenous CD33 of human AML cell lines and blood monocytes; also called cell-expressed CD33 (Molm-13, Mv4-11, monocytes)
Protocol: (§3) The cells were analyzed by flow cytometry, and fold over background values were calculated by normalizing binding MFI to the MFI of a control group in which the cells were incubated with the secondary antibody only.

[13] = molecular target: T7, human CD33 expressed on cells; test: flow cytometry on Molm-13 cells, fluorophore-conjugated anti-human IgG secondary antibody, MFI as fold over background (FOB)
Protocol: as §3

[14] = molecular target: T7, human CD33 expressed on cells; test: as above; remark: listed apart in the source
Protocol: Binding of the TriNKET was detected using a fluorophore conjugated anti-human IgG secondary antibody. Cells were analyzed by flow cytometry, binding MFI to cell expressed CD33 was normalized to secondary antibody controls to obtain fold over background values.

[15] = molecular target: T5, C domain of human CD33; test: SPR, Fab captured, 37C; remark: listed apart in the source
Protocol: as §1

[16] = molecular target: T1, human CD33 extracellular domain; test: SPR, Fab captured, 37C; remark: listed apart in the source
Protocol: as §1

B1: ADI-11801 Fab (Fab, V domains shown)
VH: QVQLVQSGAEVKKPGASVKVSCKASGYTFSDYYMHWVRQAPGQGLEWMGMINPSWGSTSYAQKFQGRVTMTRDTSTSTVYMELSSLRSEDTAVYYCAREAADGFVGERYFDLWGRGTLVTVSS
VL: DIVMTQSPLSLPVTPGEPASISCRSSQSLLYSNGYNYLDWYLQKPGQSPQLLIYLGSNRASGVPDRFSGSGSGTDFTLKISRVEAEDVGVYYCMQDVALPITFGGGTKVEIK
notes: Fab fragment; also called Ab4
- Kd [1]: 0.55 nM
- koff [1]: 0.000417 s⁻¹
- kon [1]: 756000 M⁻¹ s⁻¹
- Kd [2]: 0.69 nM
- koff [2]: 0.00125 s⁻¹
- kon [2]: 1.8e+06 M⁻¹ s⁻¹
- Kd [3]: 0.55 nM
- koff [3]: 0.000417 s⁻¹
- kon [3]: 756000 M⁻¹ s⁻¹
- binding result [4]: no binding (tested: 100 nM)
- Kd [5]: 0.55 nM
- koff [5]: 0.00115 s⁻¹
- kon [5]: 2.1e+06 M⁻¹ s⁻¹
- Kd [6]: 0.69 nM
- koff [6]: 0.00125 s⁻¹
- kon [6]: 1.8e+06 M⁻¹ s⁻¹
- Kd [7]: 0.55 nM
- koff [7]: 0.000417 s⁻¹
- kon [7]: 756000 M⁻¹ s⁻¹
- binding result [8]: no binding
- Kd [9]: 0.55 nM
- koff [9]: 0.000417 s⁻¹
- kon [9]: 756000 M⁻¹ s⁻¹
- Kd [10]: 0.69 nM
- koff [10]: 0.00125 s⁻¹
- kon [10]: 1.8e+06 M⁻¹ s⁻¹

B2: I07-F405L mAb (antibody, human IgG1, kappa, V domains shown)
VH: EVQLVESGGGLVQPGGSLRLSCAASGFTFGSYWMSWVRQAPGKGLEWVATIKQDGSEKSYVDSVKGRFTISRDNAKNSLYLQMNSLRAEDTAVYYCARPLNAGELDVWGQGTMVTVSS
VL: DIQMTQSPSTLSASVGDRVTITCRASQSISSWLAWYQQKPGKAPKLLIYEASSLESGVPSRFSGSGSGTEFTLTISSLQPDDFATYYCQQSQSYPPITFGGGTKVEIKR
notes: Fc variant of I07 with F405L (EU); a Lys may optionally stand at the C-terminus of the heavy chain
- binding result [11]: no binding
- EC50 (read off the curve) [12]: ~0.3 µg/mL
- EC50 (read off the curve) [13]: ~2 µg/mL

B3: A40.G59 (bispecific antibody)
NKG2D-binding VH: QVQLQQWGAGLLKPSETLSLTCAVYGGSFSGYYWSWIRQPPGKGLEWIGEIDHSGSTNYNPSLKSRVTISVDTSKNQFSLKLSSVTAADTAVYYCARARGPWSFDPWGQGTLVTVSS
NKG2D-binding VL: DIQMTQSPSTLSASVGDRVTITCRASQSIGSWLAWYQQKPGKAPKLLIYKASSLESGVPSRFSGSGSGTEFTLTISSLQPDDFATYYCQQYHSFYTFGGGTKVEIK
CD33-binding VH: EVQLVESGGGLVQPGGSLRLSCAASGFTFSSYGMSWVRQAPGKGLEWVANIKQDGSEKYYVDSVKGRFTISRDNAKNSLYLQMNSLRAEDTAVYYCAREGGPYYDSSGYFVYYGMDVWGQGTTVTVSS
CD33-binding VL: DIQMTQSPSTLSASVGDRVTITCRASQSISSWLAWYQQKPGKAPKLLIYDASSLESGVPSRFSGSGSGTEFTLTISSLQPDDFATYYCQQYESFPTFGGGTKVEIK
- binding result [14]: binds

B4: A40.H76 (bispecific antibody)
NKG2D-binding VH: QVQLQQWGAGLLKPSETLSLTCAVYGGSFSGYYWSWIRQPPGKGLEWIGEIDHSGSTNYNPSLKSRVTISVDTSKNQFSLKLSSVTAADTAVYYCARARGPWSFDPWGQGTLVTVSS
NKG2D-binding VL: DIQMTQSPSTLSASVGDRVTITCRASQSIGSWLAWYQQKPGKAPKLLIYKASSLESGVPSRFSGSGSGTEFTLTISSLQPDDFATYYCQQYHSFYTFGGGTKVEIK
CD33-binding VH: EVQLLESGGGLVQPGGSLRLSCAASGFTFSKYTMSWVRQAPGKGLEWVSAIVGSGESTYFADSVKGRFTISRDNSKNTLYLQMNSLRAEDTAVYYCAREGGPYYDSSGYFVYYGMDVWGQGTTVTVSS
CD33-binding VL: DIQMTQSPSTLSASVGDRVTITCRASQSISSWLAWYQQKPGKAPKLLIYKASSLESGVPSRFSGSGSGTEFTLTISSLQPDDFATYYCQQYDDLPTFGGGTKVEIK
- binding result [14]: binds

B5: F47.G59 (bispecific antibody)
NKG2D-binding VH: QVQLQQWGAGLLKPSETLSLTCAVYGGSFSGYYWSWIRQPPGKGLEWIGEIDHSGSTNYNPSLKSRVTISVDTSKNQFSLKLSSVTAADTAVYYCARARGPWSFDPWGQGTLVTVSS
NKG2D-binding VL: DIQMTQSPSTLSASVGDRVTITCRASQSISSWLAWYQQKPGKAPKLLIYKASSLESGVPSRFSGSGSGTEFTLTISSLQPDDFATYYCQQYDTFITFGGGTKVEIK
CD33-binding VH: EVQLVESGGGLVQPGGSLRLSCAASGFTFSSYGMSWVRQAPGKGLEWVANIKQDGSEKYYVDSVKGRFTISRDNAKNSLYLQMNSLRAEDTAVYYCAREGGPYYDSSGYFVYYGMDVWGQGTTVTVSS
CD33-binding VL: DIQMTQSPSTLSASVGDRVTITCRASQSISSWLAWYQQKPGKAPKLLIYDASSLESGVPSRFSGSGSGTEFTLTISSLQPDDFATYYCQQYESFPTFGGGTKVEIK
- binding result [14]: binds

B6: F47.H76 (bispecific antibody)
NKG2D-binding VH: QVQLQQWGAGLLKPSETLSLTCAVYGGSFSGYYWSWIRQPPGKGLEWIGEIDHSGSTNYNPSLKSRVTISVDTSKNQFSLKLSSVTAADTAVYYCARARGPWSFDPWGQGTLVTVSS
NKG2D-binding VL: DIQMTQSPSTLSASVGDRVTITCRASQSISSWLAWYQQKPGKAPKLLIYKASSLESGVPSRFSGSGSGTEFTLTISSLQPDDFATYYCQQYDTFITFGGGTKVEIK
CD33-binding VH: EVQLLESGGGLVQPGGSLRLSCAASGFTFSKYTMSWVRQAPGKGLEWVSAIVGSGESTYFADSVKGRFTISRDNSKNTLYLQMNSLRAEDTAVYYCAREGGPYYDSSGYFVYYGMDVWGQGTTVTVSS
CD33-binding VL: DIQMTQSPSTLSASVGDRVTITCRASQSISSWLAWYQQKPGKAPKLLIYKASSLESGVPSRFSGSGSGTEFTLTISSLQPDDFATYYCQQYDDLPTFGGGTKVEIK
- binding result [14]: binds

B7: A49-F3′-TriNKET-I07 (bispecific antibody, human IgG1, kappa)
chain: DIQMTQSPSTLSASVGDRVTITCRASQSISSWLAWYQQKPGKAPKLLIYEASSLESGVPSRFSGSGSGTEFTLTISSLQPDDFATYYCQQSQSYPPITFGCGTKVEIKGGGGSGGGGSGGGGSGGGGSEVQLVESGGGLVQPGGSLRLSCAASGFTFGSYWMSWVRQAPGKCLEWVATIKQDGSEKSYVDSVKGRFTISRDNAKNSLYLQMNSLRAEDTAVYYCARPLNAGELDVWGQGTMVTVSSASDKTHTCPPCPAPELLGGPSVFLFPPKPKDTLMISRTPEVTCVVVDVSHEDPEVKFNWYVDGVEVHNAKTKPREEQYNSTYRVVSVLTVLHQDWLNGKEYKCKVSNKALPAPIEKTISKAKGQPREPRVYTLPPCRDELTKNQVSLTCLVKGFYPSDIAVEWESNGQPENNYKTTPPVLVSDGSFTLYSKLTVDKSRWQQGNVFSCSVMHEALHNHYTQKSLSLSPG
heavy: EVQLVESGGGLVKPGGSLRLSCAASGFTFSSYSMNWVRQAPGKGLEWVSSISSSSSYIYYADSVKGRFTISRDNAKNSLYLQMNSLRAEDTAVYYCARGAPMGAAAGWFDPWGQGTLVTVSSASTKGPSVFPLAPSSKSTSGGTAALGCLVKDYFPEPVTVSWNSGALTSGVHTFPAVLQSSGLYSLSSVVTVPSSSLGTQTYICNVNHKPSNTKVDKKVEPKSCDKTHTCPPCPAPELLGGPSVFLFPPKPKDTLMISRTPEVTCVVVDVSHEDPEVKFNWYVDGVEVHNAKTKPREEQYNSTYRVVSVLTVLHQDWLNGKEYKCKVSNKALPAPIEKTISKAKGQPREPQVCTLPPSRDELTENQVSLTCLVKGFYPSDIAVEWESNGQPENNYKTTPPVLDSDGSFFLYSWLTVDKSRWQQGNVFSCSVMHEALHNHYTQKSLSLSPG
light: DIQMTQSPSSVSASVGDRVTITCRASQGISSWLAWYQQKPGKAPKLLIYAASSLQSGVPSRFSGSGSGTDFTLTISSLQPEDFATYYCQQGVSFPRTFGGGTKVEIKRTVAAPSVFIFPPSDEQLKSGTASVVCLLNNFYPREAKVQWKVDNALQSGNSQESVTEQDSKDSTYSLSSTLTLSKADYEKHKVYACEVTHQGLSSPVTKSFNRGEC
notes: trispecific: I07 scFv-Fc (CD33), A49 VH-CH1-Fc and A49 VL-CL (NKG2D Fab), heterodimeric IgG1 Fc (CD16); also called TriNKET derivative of I07 mAb
- EC50 (read off the curve) [12]: ~2 µg/mL
- EC50 (read off the curve) [13]: ~5 µg/mL

B8: ADI-11815 Fab (Fab, V domains shown)
VH: QVQLVQSGAEVKKPGASVKVSCKASGYTFGTYYMHWVRQAPGQGLEWMGIINPSRGSTVYAQKFQGRVTMTRDTSTSTVYMELSSLRSEDTAVYYCARGAGYDDEDMDVWGKGTTVTVSS
VL: DIQMTQSPSSVSASVGDRVTITCRASQGIDSWLAWYQQKPGKAPKLLIYAASSLQSGVPSRFSGSGSGTDFTLTISSLQPEDFATYYCQQAHSYPLTFGGGTKVEIK
notes: Fab fragment; also called Ab7
- binding result [15]: no binding
- Kd [16]: 0.23 nM
- koff [16]: 7.91e-05 s⁻¹
- kon [16]: 339000 M⁻¹ s⁻¹
- Kd [1]: 0.23 nM
- koff [1]: 7.91e-05 s⁻¹
- kon [1]: 339000 M⁻¹ s⁻¹
- binding result [2]: no binding
- Kd [3]: 0.23 nM
- koff [3]: 7.91e-05 s⁻¹
- kon [3]: 339000 M⁻¹ s⁻¹
- binding result [4]: no binding (tested: 100 nM)
- Kd [7]: 0.23 nM
- koff [7]: 7.91e-05 s⁻¹
- kon [7]: 339000 M⁻¹ s⁻¹
